Target: PhiKZ nvRNAP GP55 (beta'-like);PhiKZ nvRNAP GP74 (beta'-like);PhiKZ nvRNAP GP71-73 (beta-like);PhiKZ nvRNAP … (Pseudomonas phage phiKZ;Pseudomonas …, UniProt Q8SDA7;Q8SD88;PDB:8QUE_2;Q8SD39;Q8SD94 1-420;1-677;1-700;1-543;1-521, ||||)
Experiment: cryo-EM structure (3.3 A); 10 mM MgCl2; 1 mM ATP, CTP, GTP, no UTP; Zn2+ in GP55; 40 mM Tris-Cl pH 8.0, 10 mM MgCl2, 5 mM DTT, 1 mM ATP/CTP/GTP, 30 min at 37 C, nvRNAP 0.1 mg/mL with scaffold 1:1; native PAGE 4-20% TGX at 4 C
Conditions: protein: recombinant;recombinant;recombinant;recombinant;recombinant; tags: ;;;;; copies: 1;1;1;1;1; label: Cy5 at 5' end of RNA (printed Cy5-GUAGA); non-template/template DNA with mismatched bubble; RNA hybrid with template (6 bp resolved)

B1: p119L RNA/DNA template with RNA extended by 3 nt (mixed)
DNA 1: AGTAATTTTAGTGAATGTATTTGCTATATTGCTATCCTAACAGTTCCCAAAAGCCTAAAGTTACAATATAGGTAC
DNA 2: GTACCTATATTGTAACTTTAGGCTTTTGGGAACTGTCTACATAGCAATATAGCAAATACATTCACTAAAATTACT
RNA: GUAGACAG
binding result: binds
